According to the DeepSol protein solubility set:

Experiment: soluble on expression in E. coli; label from the status in PepcDB or PDB records

Soluble on expression in E. coli, not soluble:
MGSDKIHHHHHHMLLREPDPMNVKEKQMQHTDDTRDIAGVQKPEAPSGRRALITGASSGLGIEFAELLAAQKMNLVLAARRKEPMEKLAEDLRRRHGVDILVEPIDLAAPGAAARLKDSLNERAIQIDILVNNAGYGLQGEFLKTPIERTTDMIQLNITALTELSYVFGRDMAARGSGEILLIASLLAFQPVPTYAAYAATKSYVLSFGEALHDELRTQGVVVTSLCPGHTETGFDAAAGAQVSPMLRLLTMKPRPVAEAGLEALAKGKASVIAGFMNKVVAFSTRLTPRSMQRASMRKVMVP
MGSDKIHHHHHHMLLSMNRVSNPFRATLGSTPPYLAGRRHEIEDFAEALDDGPGAHERISLITGLRGVGKTVLLNAFEEEARARSWWVISETATAGFTERIIDALFRKASEILHTHRRKLSGITLPSIGGIQFSDILEHQPKITLRSVLTEILSWQEEIDRKLGQDSVGLLITLDELHYHRREEVIDFGATIQHLVREDLNISVAMAGIPQSIKPLLASEEGKNPVTFLRRANRIDLGLIDNNEVRKALAEPVEKVGVTWESDALTDAAEACGGYPFMIQLIGQQCFKRKRSNFITVGSVAEAAVVAKRKLGQLVHEPALADLSEVDRTFLVAMAADDGPSTMSDIAQRLGVNSQYAGNYRRRLIDAEIITSSGYGQVDFELPYMREYLREHAVVDVFKQ
MGSDKIHHHHHHMLNKLCMYLERPELYKQSEINFWDDEYISKQLLKAHLDTNFEGASRNFNFIEDSVNWIVTVANPANYPKLLDLGCGPGLYAEKFAQKGYKVTGIDFSKRSINYAQNRNKETNLNINYLFQSYLNMNYNEEFDLATLIYCDYGALSTENRRLLMEKIYDSLKPGGKLILDVFTINKYNNFEEIKYWEINEDGGFWSNEKYMCLQDNCKYNDYNTLEQTLVITEKDENVFYVWNHYFSKESFLLEVENIGFKSVEFFSNVKGEAYSDDSMTMGLVLQK
MGSDKIHHHHHHMLQAFATQYIVESLGCETEIIDYTADRFNKHYPLDLGLFRFLIDAYQEKKKKAARTKFNDATFQNNIAKRKTSYVEFIHRRLHNIKEVSGFSNLCKLGSEYDAVLIGSDQKWHPGFSFGVDSSFRFVPKSVRTISYATSLGVSEYPKSYWRTSRKAWSRIDYLSVREKTGADIISKVCDNNIHAEVVVDPTYLISCEDWKKIFPVEKKFEDKYIFCYFLGNDEESKKCARRYANLKGLKLVSVVSNESYSEIDQEYADFLMTGESPDSFVNWIRGAECVFTDSFHGTAFSIMNEKQIYVFYRKNTGVKLQRHSRIDDILSLWEIKYRLITDKHREWDSYQEQPIDYTLVTQKVQSERERSMKFLKAALTF
MGSDKIHHHHHHMLQLNSPHVHNLFNTPFSAAIMDDVVIGLEVHVQLNRLRTKLFCSCPLNYHQSPPNTHVCPVCLGMPGAMPVINKEAVKAAVKVAMALNAEIQPFTVFDRKNYFYPDLPKGFQISQYDRPLALGGYVTIELDGQEKRIQLKRVHMEEDPGKLSYKGSITTAKYSLIDYNRSGAPLLEIVTEPVMNSPKEARLFLNKLRMILEYLEVFDGDLEGAMRVDANISIRGSGRVEIKNISSFKGVEKALSYEIMRQKNLLQRGRSVVRETRHFDEARNITVSLRSKEEEQDYRYFPEPDLVPVLTEEIVREVEGTLPEMPEEKRERLKRQYGIGDNFAKVLILDVKMADYFEEVAKLVDPKLAASWIVDVLRGELNYRDWSFAKCWEVFKPEEFAKLLKYFEEDRITEKGVVEVIRTKLDEGGEIDAIIQKKGLFAIPKEEIIKFCKEAIEENPKAVEDYLSGKRQALNFLVGQVMKKTRGRADPADTAKLIEEMLS
MGSDKIHHHHHHMLQQRIQSLEEQEHLPSLLSADAQELAHQLQEHQKKIFSPSAQKTMRLFSPAEAAAFIGIGEGYLRQIASEGHGPQPLSNGRRMYAMEDIDRIRRVLDEGSKTGKYIPHRRPGEKLQVVSVMNFKGGSGKTTTSAHLAQYLALRGYRVLAIDLDPQASLSALFGHQPELDVGEGETLYGAIRYEAPRPIAEVVRSTYTANLHLIPGNLELMEFEHETPKAMIAGSTETMFFARIGEVLSEIESFYDIVVIDCPPQLGFLTMSALCAATSVLITVHPQMLDVMSMSQFLSMTSELMAVVENAGGRTSYDWMRYLVTRFEPNDGPQSQMTGFMRAIFGNRMLQNAMVKSTAISDAGVTKQTLYEVERSQFIRGTYDRAMDSLSLVNAEIEEMIRRVWGRK
